Laboratory results taken from patent publication US20060257938A1, “Method of screening for drugs that block ligand binding to a lipid binding protein” (priority 2005, published 2006).
Residue numbers refer to the chain shown, from its start. Names may count otherwise.

B1: W82F, L72A: FABP probe clone, substitutions W82F, L72A vs SEQ ID NO: 2 (protein, listed as Rattus norvegicus)
chain: AFDGTWKVDRNENYEKFMEKMGINVVKRKLGAHDNLKLTITQEGNKFTVKESSNFRNIDVVFELGVDFAYSAADGTELTGTFTMEGNKLVGKFKRVDNGKELIAVREISGNELIQTYTYEGVEAKRIFKKE
modifications: PEPTIDE (1)...(131) wild-type rat intestinal fatty acid binding protein
B2: R106W, L72A: FABP probe clone, substitutions R106W, L72A vs SEQ ID NO: 2 (protein, listed as Rattus norvegicus)
chain: B1 chain with F82W, R106W
modifications: PEPTIDE (1)...(131) wild-type rat intestinal fatty acid binding protein
B3: Y117A, L72A: FABP probe clone, substitutions Y117A, L72A vs SEQ ID NO: 2 (protein, listed as Rattus norvegicus)
chain: B1 chain with F82W, Y117A
modifications: PEPTIDE (1)...(131) wild-type rat intestinal fatty acid binding protein
B4: Y117S, L72A: FABP probe clone, substitutions Y117S, L72A vs SEQ ID NO: 2 (protein, listed as Rattus norvegicus)
chain: B1 chain with F82W, Y117S
modifications: PEPTIDE (1)...(131) wild-type rat intestinal fatty acid binding protein
B5: L72A: FABP probe clone, substitution L72A vs SEQ ID NO: 2 (protein of ADIFAB2) (protein, listed as Rattus norvegicus)
chain: B1 chain with F82W
modifications: PEPTIDE (1)...(131) wild-type rat intestinal fatty acid binding protein
B6: L72G: FABP probe clone, substitution L72G vs SEQ ID NO: 2 (protein, listed as Rattus norvegicus)
chain: B1 chain with A72G, F82W
modifications: PEPTIDE (1)...(131) wild-type rat intestinal fatty acid binding protein
B7: L72M: FABP probe clone, substitution L72M vs SEQ ID NO: 2 (protein, listed as Rattus norvegicus)
chain: B1 chain with A72M, F82W
modifications: PEPTIDE (1)...(131) wild-type rat intestinal fatty acid binding protein
B8: A73F, L72A: FABP probe clone, substitutions A73F, L72A vs SEQ ID NO: 2 (protein, listed as Rattus norvegicus)
chain: B1 chain with A73F, F82W
modifications: PEPTIDE (1)...(131) wild-type rat intestinal fatty acid binding protein
B9: L1P12E11: FABP probe, substitutions Y14L L72W vs SEQ ID NO: 2 (protein, listed as Rattus norvegicus)
chain: B1 chain with Y14L, A72W, F82W
modifications: PEPTIDE (1)...(131) wild-type rat intestinal fatty acid binding protein
B10: L1P12F12: FABP probe, substitutions Y14L L72G Y117V vs SEQ ID NO: 2 (protein, listed as Rattus norvegicus)
chain: B1 chain with Y14L, A72G, F82W, Y117V
modifications: PEPTIDE (1)...(131) wild-type rat intestinal fatty acid binding protein
B11: L1P2F7: FABP probe, substitutions Y14I L72G Y117V vs SEQ ID NO: 2 (protein, listed as Rattus norvegicus)
chain: B1 chain with Y14I, A72G, F82W, Y117V
modifications: PEPTIDE (1)...(131) wild-type rat intestinal fatty acid binding protein
B12: L1P7B11: FABP probe, substitutions Y14I L38I L72V vs SEQ ID NO: 2 (protein, listed as Rattus norvegicus)
chain: B1 chain with Y14I, L38I, A72V, F82W
modifications: PEPTIDE (1)...(131) wild-type rat intestinal fatty acid binding protein
B13: L1P12G10: FABP probe, substitution Y14I vs SEQ ID NO: 2 (protein, listed as Rattus norvegicus)
chain: B1 chain with Y14I, A72L, F82W
modifications: PEPTIDE (1)...(131) wild-type rat intestinal fatty acid binding protein
B14: L1P3D6: FABP probe, substitution Y14L vs SEQ ID NO: 2 (protein, listed as Rattus norvegicus)
chain: B1 chain with Y14L, A72L, F82W
modifications: PEPTIDE (1)...(131) wild-type rat intestinal fatty acid binding protein
B15: L1P1F7: FABP probe, substitutions Y14L L38M Y117F vs SEQ ID NO: 2 (protein, listed as Rattus norvegicus)
chain: B1 chain with Y14L, L38M, A72L, F82W, Y117F
modifications: PEPTIDE (1)...(131) wild-type rat intestinal fatty acid binding protein
B16: L1P14A9: FABP probe, substitutions Y14L L72G Y117I vs SEQ ID NO: 2 (protein, listed as Rattus norvegicus)
chain: B1 chain with Y14L, A72G, F82W, Y117I
modifications: PEPTIDE (1)...(131) wild-type rat intestinal fatty acid binding protein
B17: L1P11F12: FABP probe, substitutions Y14L L38I vs SEQ ID NO: 2 (protein, listed as Rattus norvegicus)
chain: B1 chain with Y14L, L38I, A72L, F82W
modifications: PEPTIDE (1)...(131) wild-type rat intestinal fatty acid binding protein
B18: L1P17A8: FABP probe, substitutions L38M L72G Y117F vs SEQ ID NO: 2 (protein, listed as Rattus norvegicus)
chain: B1 chain with L38M, A72G, F82W, Y117F
modifications: PEPTIDE (1)...(131) wild-type rat intestinal fatty acid binding protein
B19: L1P9G10: FABP probe, substitutions L38I L72G vs SEQ ID NO: 2 (protein, listed as Rattus norvegicus)
chain: B1 chain with L38I, A72G, F82W
modifications: PEPTIDE (1)...(131) wild-type rat intestinal fatty acid binding protein

Experiment: Probe fluorescence ratio response to palmitic acid relative to ADIFAB2
Format: binding
Details: Table 3
Outline: (§1)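 Fluorescently labeled rat intestinal FABP variants were read at two emission wavelengths, near the unbound maximum (about 420 to 480 nm) and the FFA-bound maximum (about 495 to 580 nm). R = Fλ1/Fλ2 after subtracting probe-free intensity; ΔR = R+agent − R0, normalized to ADIFAB2 (rI-FABP-L72A).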

B1 and B2 are the same in “DR/DRAD2 PA” value: 0.41 for the first, 0.41 for the second.

Going from B3 to B4, the “DR/DRAD2 PA” value rises from 0.32 to 0.55.

Going from B5 to B6, the “DR/DRAD2 PA” value falls from 1.02 to 0.26.

First: B7
Second: B8
The “DR/DRAD2 PA” value of the first is higher: 1.32 for the first, 1.13 for the second.

Same assay, conditions: Table 4

Compared with B9, B10 is higher in “ΔR/DRAΔ2 PA” value: −0.1 for the first, 0.1 for the second.

First: B11
Second: B12
The “ΔR/DRAΔ2 PA” value of the first is lower: 0.1 for the first, 0.8 for the second.

Compared with B13, B14 is lower in “ΔR/DRAΔ2 PA” value: 0.8 for the first, 0.5 for the second.

First: B15
Second: B16
The “ΔR/DRAΔ2 PA” value of the first is higher: 0.5 for the first, 0.2 for the second.

Going from B17 to B18, the “ΔR/DRAΔ2 PA” value falls from 0.7 to 0.4.

For B19, the “ΔR/DRAΔ2 PA” value was 0.4.

Experiment: Probe fluorescence ratio response to oleic acid relative to ADIFAB2
Format: binding
Details: Table 3
Outline: as §1

Going from B1 to B2, the “DR/DRAD2 OA” value rises from 0.78 to 0.99.

Going from B3 to B4, the “DR/DRAD2 OA” value rises from 0.93 to 1.19.

Compared with B5, B6 is lower in “DR/DRAD2 OA” value: 1.15 for the first, 0.52 for the second.

Going from B7 to B8, the “DR/DRAD2 OA” value falls from 1.49 to 0.73.

Same assay, conditions: Table 4

Going from B9 to B10, the “ΔR/DRAΔ2 OA” value rises from −1.0 to 0.3.

First: B11
Second: B12
The “ΔR/DRAΔ2 OA” value of the first is lower: 0.3 for the first, 0.4 for the second.

B13 and B14 are the same in “ΔR/DRAΔ2 OA” value: 0.5 for the first, 0.5 for the second.

First: B15
Second: B16
The “ΔR/DRAΔ2 OA” value of the first is higher: 0.5 for the first, 0.4 for the second.

B17 and B18 are the same in “ΔR/DRAΔ2 OA” value: 0.7 for the first, 0.7 for the second.

With B19 the “ΔR/DRAΔ2 OA” value was 0.9.

Experiment: Probe fluorescence ratio response to linoleic acid relative to ADIFAB2
Format: binding
Details: Table 3
Outline: as §1

Compared with B1, B2 is lower in “DR/DRAD2 LA” value: 1.08 for the first, 1.04 for the second.

Compared with B3, B4 is higher in “DR/DRAD2 LA” value: 1.01 for the first, 1.42 for the second.

First: B5
Second: B6
The “DR/DRAD2 LA” value of the first is higher: 1.14 for the first, 0.48 for the second.

First: B7
Second: B8
The “DR/DRAD2 LA” value of the first is higher: 1.46 for the first, 1.23 for the second.

Same assay, conditions: Table 4

Compared with B9, B10 is higher in “ΔR/DRAΔ2 LA” value: −0.7 for the first, 0.5 for the second.

Compared with B11, B12 is higher in “ΔR/DRAΔ2 LA” value: 0.6 for the first, 0.9 for the second.

Going from B13 to B14, the “ΔR/DRAΔ2 LA” value falls from 0.9 to 0.8.

First: B15
Second: B16
The “ΔR/DRAΔ2 LA” value of the first is higher: 0.9 for the first, 0.8 for the second.

Compared with B17, B18 is lower in “ΔR/DRAΔ2 LA” value: 1.1 for the first, 0.8 for the second.

For B19, the “ΔR/DRAΔ2 LA” value was 0.8.

Experiment: Probe fluorescence ratio response to linolenic acid relative to ADIFAB2
Format: binding
Details: Table 3
Outline: as §1

Compared with B1, B2 is higher in “DR/DRAD2 LNA” value: 0.76 for the first, 1.03 for the second.

Going from B3 to B4, the “DR/DRAD2 LNA” value rises from 0.62 to 1.07.

Going from B5 to B6, the “DR/DRAD2 LNA” value falls from 1.16 to 0.48.

First: B7
Second: B8
The “DR/DRAD2 LNA” value of the first is lower: 1.35 for the first, 1.86 for the second.

Same assay, conditions: Table 4

Compared with B9, B10 is higher in “ΔR/DRAΔ2 LNA” value: −0.7 for the first, 0.5 for the second.

First: B11
Second: B12
The “ΔR/DRAΔ2 LNA” value of the first is lower: 0.5 for the first, 0.9 for the second.

First: B13
Second: B14
The “ΔR/DRAΔ2 LNA” value of the first is higher: 1.0 for the first, 0.9 for the second.

Going from B15 to B16, the “ΔR/DRAΔ2 LNA” value falls from 1.0 to 0.8.

Going from B17 to B18, the “ΔR/DRAΔ2 LNA” value falls from 1.2 to 0.7.

In the case of B19, the “ΔR/DRAΔ2 LNA” value is reported as 0.7.

Experiment: Probe fluorescence ratio response to arachidonic acid relative to ADIFAB2
Format: binding
Details: Table 3; Arachidonic acid
Outline: as §1

First: B1
Second: B2
The “DR/DRAD2 AA” value of the first is lower: 0.68 for the first, 1.11 for the second.

Compared with B3, B4 is higher in “DR/DRAD2 AA” value: 1.27 for the first, 1.35 for the second.

First: B5
Second: B6
The “DR/DRAD2 AA” value of the first is higher: 1.12 for the first, 0.62 for the second.

Compared with B7, B8 is lower in “DR/DRAD2 AA” value: 1.31 for the first, 1.21 for the second.

Same assay, conditions: Table 4; Arachidonic acid

First: B9
Second: B10
The “ΔR/DRAΔ2 AA” value of the first is lower: −0.5 for the first, 0.9 for the second.

First: B11
Second: B12
The “ΔR/DRAΔ2 AA” value of the first is higher: 0.9 for the first, 0.7 for the second.

First: B13
Second: B14
The “ΔR/DRAΔ2 AA” value of the first is lower: 0.8 for the first, 0.9 for the second.

Compared with B15, B16 is lower in “ΔR/DRAΔ2 AA” value: 0.9 for the first, 0.8 for the second.

Compared with B17, B18 is higher in “ΔR/DRAΔ2 AA” value: 1.0 for the first, 1.3 for the second.

With B19 the “ΔR/DRAΔ2 AA” value was 1.0.
